According to PMC4888784:

Target: PIN1 (UniProt Q13526)
Experiment: His-tagged peptide binding to GST-PIN1
Conditions: reference: nonphosphorylated S203/P204 peptide; sites S203

- binding against the reference: stronger
Substance: PGK1 (phosphoglycerate kinase 1) oligopeptide containing S203/P204, borders not given (from UniProt P00558) pS203/P204 peptide
